This note sets out measurements from the RNAGym collection of RNA variant scans (doi:10.7554/elife.80360).

The labels stand for the following.
B1: Hairpin Ribozyme (parent)
chain: GUCCUCUUUCACGUGCGCGUGAAAGAGAGAAGUGAACCAGAGAAACACACGUUGUGGUAUAUUACCUGGUA

The series covers variants of B1. As to the kind of experiment: self-cleavage, relative activity (ratio to wild type); higher = more cleavage; co-transcriptional.
Consider GUCCUCUUUCACGUGCUGGUGAAAGAGAGAAGUGAACCAGAGAAACACACGUUGUGGUAUAUUACCUGGUA, for which the self-cleavage amounted to 0.979.
On to GUCCUCUUUCACGUGCUAGUGAAAGAGAGAAGUGAACCAGAGAAACACACGUUGUGGUAUAUUACCUGGUA, for which the self-cleavage amounted to 0.966.
As for GUCCUCUUUCACGUGCUUGUGAAAGAGAGAAGUGAACCAGAGAAACACACGUUGUGGUAUAUUACCUGGUA, the self-cleavage amounted to 0.926.
In the case of GUCCUCUUUCACGUGCUCGUGAAAGAGAGAAGUGAACCAGAGAAACACCCGUUGUGGUAUAUUACCUGGUA, the self-cleavage was 0.177.
Consider GUCCUCUUUCACGUGCUCGUGAAAGAGAGAAGUGAACCAGAGAAACACACGUUGUGGUAUAUUACCUAGUA, for which the self-cleavage stood at 0.258.
Take GUCCUCUUUCACGUGCUCGUGAAAGAGAGAAGUGAACCAGAGAAACAGACGUUGUGGUAUAUUACCUGGUA: the self-cleavage worked out at 0.0807.
With GUCCUCUUUCACGUGCUCGUGAAAGAGAGAAGUGAACCAGAGAAACAUACGUUGUGGUAUAUUACCUGGUA, the self-cleavage came out at 0.11.
For GUCCUCUUUCACGUGCUCGUGAAAGAGAGAAGUGAACCAGAGAAACACACGUUGUCGUAUAUUACCUGGUA the value was 0.126.
For the variant GUCCUCUUUCACGUGCUCGUGAAAGAGAGAAGUGAACCAGAGAAACACACGUUGUAGUAUAUUACCUGGUA, the self-cleavage was found to be 0.194.
In the case of GUCCUCUUUCACGUGCUCGUGAAAGAGAGAAGUGAACCAGAGAAACACACGUUGGGGUAUAUUACCUGGUA, the self-cleavage was 0.351.
For GUCCUCUUUCACGUGCGAGUGCAAGAGAGAAGUGAACCAGAGAAACACACGUUGUGGUAUAUUACCUGGUA the value was 1.04; for GUCCUCUUUCACGUGCGAGUGUAAGAGAGAAGUGAACCAGAGAAACACACGUUGUGGUAUAUUACCUGGUA, 0.794.
Take GUCCUCUUUCACGUGCUCGUGAAAGAGAGAAGUGAACCGGAGAAACACACGUUGUGGUAUAUUACCUGGUA: the self-cleavage is 0.29.
For the variant GUCCUCUUUCACGUGCUCGUGAAAGAGAGGAGUGAACCAGAGAAACACACGUUGUGGUAUAUUACCUGGUA, the self-cleavage is 0.134.
Consider GUCCUCUUUCACGUGCUCGUGAAAAAGAGAAGUGAACCAGAGAAACACACGUUGUGGUAUAUUACCUGGUA, for which the self-cleavage worked out at 0.653.
For GUCCUCUUUCACGUGCUCGUGAAACAGAGAAGUGAACCAGAGAAACACACGUUGUGGUAUAUUACCUGGUA the value was 0.682; for GUCCUCUUUCACGUGCUCGUGAAAGAGAGAGGUGAACCAGAGAAACACACGUUGUGGUAUAUUACCUGGUA, 0.6; for GUCCUCUUUCACGUGCUCGAGAAAGAGAGAAGUGAACCAGAGAAACACACGUUGUGGUAUAUUACCUGGUA, 0.59.
For GUCCUCUUUCACGUGCUCGUGAAAGAGAGAAGUGAACCAGAGAACCACACGUUGUGGUAUAUUACCUGGUA the value was 0.156; for GUCCUCUUUCACGUGCUCGUGAAAGAGAGAAGUGAACCAGAGAAACACACGUUGUGGUAUAUUUCCUGGUA, 0.16; for GUCCUCUUUCACGUGCUCGUGAAAGAGAGAAGUGAACCAGAGAAACACACGUUGUGGUAUAUUCCCUGGUA, 0.245.
On to GUCCUCUUUCACGUGCUCGUGAAAGAGACAAGUGAACCAGAGAAACACACGUUGUGGUAUAUUACCUGGUA, for which the self-cleavage amounted to 0.105.
For the variant GUCCUCUUUCACGUGCUCGUGAAAGAGAGAAGUGAACCAGAGAAACACACGUUGUGGUAUAUUACCUGCUA, the self-cleavage amounted to 0.296.
Then GUCCUCUUUCACGUGCCCGUGAAAGAGAGAAGUGAACCAGAGAAACACACGUUGCGGUAUAUUACCUGGUA, with 0.216; and GUCCUCUUUCACGUGCUCGUGAAAGAGAGAAGUGAACCAGAGAAACACAAGUUGUGGUAUAUUACCUGGUA, with 0.232.
Regarding GUCCUCUUUCACGUGCUCGUGAAAGAGAGAAGUGAACCAGAGAAACACAUGUUGUGGUAUAUUACCUGGUA, the self-cleavage amounted to 0.326.
With GUCCUCUUUCACGUGCUCGUGAGAGAGAGAAGUGAACCAGAGAAACACACGUUGUGGUAUAUUACCUGGUA, the self-cleavage turned out to be 0.632.
Then GUCCUCUUUCACGUGCUCGUGACAGAGAGAAGUGAACCAGAGAAACACACGUUGUGGUAUAUUACCUGGUA, with 0.898; and GUCCUCUUUCACGUGCCCGUGAAAGAGAGAAGUGAACCAGAGAAACACACGUUGUGGUAUAUCACCUGGUA, with 0.276.
Consider GUCCUCUUUCACGUGCCCGUGAAAGAGAGAAGUGAACCAGAGAAACACACGUUGUGGGAUAUUACCUGGUA, for which the self-cleavage turned out to be 0.432.
For the variant GUCCUCUUUCACGUGCUCGUAAAAGAGAGAAGUGAACCAGAGAAACACACGUUGUGGUAUAUUACCUGGUA, the self-cleavage came to 0.491.
In the case of GUCCUCUUUCACGUGCGAGUGAAGGAGAGAAGUGAACCAGAGAAACACACGUUGUGGUAUAUUACCUGGUA, the self-cleavage amounted to 0.95.
For GUCCUCUUUCACGUGCCCGUGAAAGAGAGAAGUGAACCAGAGAAACACACGUUGUGGUAAAUUACCUGGUA, the self-cleavage was 0.582.
For the variant GUCCUCUUUCACGUGCUCGUGAAAGUGAGAAGUGAACCAGAGAAACACACGUUGUGGUAUAUUACCUGGUA, the self-cleavage amounted to 0.632.
Take GUCCUCUUUCACGUGCUCGUGAAAGAGAGAAGUGAACCAGAGAAACACACGUUGUGGUACAUUACCUGGUA: the self-cleavage came to 1.35.
GUCCUCUUUCACGUGCGAGUGAAAGGGAGAAGUGAACCAGAGAAACACACGUUGUGGUAUAUUACCUGGUA: the self-cleavage is 0.888.
As for GUCCUCUUUCACGUGCGAGUGAAAGCGAGAAGUGAACCAGAGAAACACACGUUGUGGUAUAUUACCUGGUA, the self-cleavage amounted to 0.527.
Regarding GUCCUCUUUCACGUGCCCGUGAAAGAGAGAAGUGAACCAGAGAAACACACGUUGUGGUAUAUUACCGGGUA, the self-cleavage turned out to be 0.161.
As to GUCCUCUUUCACGUGCUCGUGAAAGACAGAAGUGAACCAGAGAAACACACGUUGUGGUAUAUUACCUGGUA, the self-cleavage is 0.165.
In the case of GUCCUCUUUCACGUGCUCGUGAAAGAUAGAAGUGAACCAGAGAAACACACGUUGUGGUAUAUUACCUGGUA, the self-cleavage came out at 0.239.
Turning to GUCCUCUUUCACGUGCUCGUGAAAGAAAGAAGUGAACCAGAGAAACACACGUUGUGGUAUAUUACCUGGUA, the self-cleavage worked out at 0.374.
Consider GUCCUCUUUCACGUGCGAGUGAGAGAGAGAAGUGAACCAGAGAAACACACGUUGUGGUAUAUUACCUGGUA, for which the self-cleavage was 1.02.
GUCCUCUUUCACGUGCUCGUGAAAGAGAGAAGUGAACCAGAGAAACCCACGUUGUGGUAUAUUACCUGGUA: the self-cleavage stood at 0.347.
Turning to GUCCUCUUUCACGUGCUCGUGAAAGAGAGAAGUGAACCAGAGAAACACACGUUGUGGUAUACUACCUGGUA, the self-cleavage worked out at 0.138.
On to GUCCUCUUUCACGUGCUCGUGAAAGAGAGAAGUGAACCAGAGAAACACACGUUGUGCUAUAUUACCUGGUA, for which the self-cleavage stood at 0.151.
As for GUCCUCUUUCACGUGCUCGUGAAAGAGAGAAGUGAACCAGAGAAACACACGUUGUGAUAUAUUACCUGGUA, the self-cleavage worked out at 0.201.
On to GUCCUCUUUCACGUGCUCGUGAAAGAGAGAAGUGAACCAGAGAAACACACGUUGUGUUAUAUUACCUGGUA, for which the self-cleavage came out at 0.264.
With GUCCUCUUUCACGUGCUCGUGAAAGAGAGAAGUGAACCAGAGCAACACACGUUGUGGUAUAUUACCUGGUA, the self-cleavage was 0.0947.
Regarding GUCCUCUUUCACGUGCUCGUGAAAGAGAGAAGUGAACCAGAGUAACACACGUUGUGGUAUAUUACCUGGUA, the self-cleavage turned out to be 0.0903.
Turning to GUCCUCUUUCACGUGCUCGUGAAAGAGAGAAGUGAACCAGAGAAACACACGUUUUGGUAUAUUACCUGGUA, the self-cleavage was found to be 0.579.
GUCCUCUUUCACGUGCUCGUGAAAGAGAGAAGUGAACCAGAGAAACACACGUUAUGGUAUAUUACCUGGUA: the self-cleavage worked out at 0.642.
For GUCCUCUUUCACGUGCUCGUGAAAGAGAGAAGUGAACCAGAGAAACACACGUUGUGGUAUAUUACCUGGUC, the self-cleavage was 1.39.
Then GUCCUCUUUCACGUGCCCGUGAAAGAGAGAAGUGAACCAGAGAAACACACGUUUUGGUAUAUUACCUGGUA, with 0.417; and GUCCUCUUUCACGUGCCCGUGAAAGAGAGAAGUGAACCAGAGAAACACACGUUGUGGUAUAUUACCUGCUA, with 0.124; and GUCCUCUUUCACGUGCUCGUGAAAGAGAGAAGUGAACCAGAGAAACACACGUUGUGGUAUAUUAGCUGGUA, with 0.269.
For GUCCUCUUUCACGUGCUCGUGAAAGAGAGAAGUGAACCAGAGAAACACACGUUGUGGUAUAUUAACUGGUA the value was 0.892; for GUCCUCUUUCACGUGCUCGUGAAAGAGAGAAGUGAACGAGAGAAACACACGUUGUGGUAUAUUACCUGGUA, 0.158; for GUCCUCUUUCACGUGCUCGUGAAAGAGAGAAGUGAACCAGAGAGACACACGUUGUGGUAUAUUACCUGGUA, 0.273.
Consider GUCCUCUUUCACGUGCUCGUGAAAGAGAGAAGUGAACCAGAGAAACACACGUUGUGGUGUAUUACCUGGUA, for which the self-cleavage came out at 0.192.
On to GUCCUCUUUCACGUGCUCGUGAAAGAGAGAAGAGAACCAGAGAAACACACGUUGUGGUAUAUUACCUGGUA, for which the self-cleavage was 0.116.
As to GUCCUCUUUCACGUGCCCGUGAAAGAGAGAAGUGAACCAGAGAAACACACGUUGUCGUAUAUUACCUGGUA, the self-cleavage was 0.171.
With GUCCUCUUUCACGUGCCCGUGAAAGAGAGAAGUGAACCAGAGAAACACACGUUGUUGUAUAUUACCUGGUA, the self-cleavage came out at 0.185.
As to GUCCUCUUUCACGUGCUCGUGAAAGAGAGAAGUGAACCACAGAAACACACGUUGUGGUAUAUUACCUGGUA, the self-cleavage came to 0.18.
Then GUCCUCUUUCACGUGCUCGUGAAAGAGAGAAGUGAACCAAAGAAACACACGUUGUGGUAUAUUACCUGGUA, with 0.342.
Then GUCCUCUUUCACGUGCUCAUGAAAGAGAGAAGUGAACCAGAGAAACACACGUUGUGGUAUAUUACCUGGUA, with 0.629; and GUCCUCUUUCACGUGCCCGUGAAAGAGAGAAGUGAACCAGAGAAACACACGUUGUGGUAUAAUACCUGGUA, with 0.115.
As to GUCCUCUUUCACGUGCUCGUGAAUGAGAGAAGUGAACCAGAGAAACACACGUUGUGGUAUAUUACCUGGUA, the self-cleavage stood at 0.865.
Consider GUCCUCUUUCACGUGCUCGUGAAAGAGAGAAGUGAACCAGAGAAACACACGUUGUGGUAUAUAACCUGGUA, for which the self-cleavage came out at 0.128.
As for GUCCUCUUUCACGUGCCCGUGAAAGAGAGAAGUGAACCAGAGAAACACACGUUGUGGUAUAUUACCUCGUA, the self-cleavage amounted to 0.238.
On to GUCCUCUUUCACGUGCUCGUGAAAGAGAGAAGUGAACCAGAGAAACACACGGUGUGGUAUAUUACCUGGUA, for which the self-cleavage is 0.8.
Regarding GUCCUCUUUCACGUGCUCGUGAAAGAGAGAAGUGAACCAGAGAAACACACGAUGUGGUAUAUUACCUGGUA, the self-cleavage worked out at 1.21.
Take GUCCUCUUUCACGUGCUCGUGAAAGAGAGAAGUGAACCAGACAAACACACGUUGUGGUAUAUUACCUGGUA: the self-cleavage is 0.281.
Turning to GUCCUCUUUCACGUGCUCGUGAAAGAGAGAAGUGAAGCAGAGAAACACACGUUGUGGUAUAUUACCUGGUA, the self-cleavage amounted to 0.256.
For the variant GUCCUCUUUCACGUGCUCGUGAAAGAGAGAAGUGAAUCAGAGAAACACACGUUGUGGUAUAUUACCUGGUA, the self-cleavage came to 0.564.
On to GUCCUCUUUCACGUGCCCGUGAAAGAGAGAAGUGAACCAGAGAAACACACGAUGUGGUAUAUUACCUGGUA, for which the self-cleavage was 0.816.
Turning to GUCCUCUUUCACGUGCCCGUGAAAGAGAGAAGUGAACCAGAGAAACACACGGUGUGGUAUAUUACCUGGUA, the self-cleavage was determined as 0.821.
